{
  "source": "the DeepSol protein solubility set",
  "data": [
    {"assay": "soluble on expression in E. coli; label from the status in PepcDB or PDB records", "values": [
      {"sequence": "MSSDTGSEYLDEEIRGDELGPSIDDNALAAAASAARLPFDRPTDHELAFFPELWEHKTAVEVFLLLRNSTLATWQYNPLKECTALDVRNNVFPPFNSDLDLIQNIVHYLSRHGLINFGRYVRSTKISRFLVRDRRSVIVIGAGAAGISAATQLESFGFDVIVLEARNCIGGRIHSFKSKSGEIMETGGDTLRKIEDSPMATLLHQVNFEEHGVFDFTSVFVEGRPLNEEKIHLFLDHYKSAHGALNYQAHQCEHRDDQGSFISRQQAYENLLSMCERGTLIKYYNFCKSLETVARAREHHFNQMKQLRMTALMAENQLKKMEEEGNLEQDPVLRRSLKRDIATSLEKFEEVADAFETADNHWQRLNEHPQAKQYMHPGSEFATFNFMLGFEEYLVGAQLEKVQFSCDSMQNKENGVAARLTEGIAELLTQLSEKRKLDIRLKHRVLDIDYSGFEHVLLKVQRENGDIEEMKAAFVVSTLPIGVLKKTIIADERAPTFTPSLPDKKVEAIRNIGCGSVNKCILEFDRVFWTANGGRNQFVTVSPNIKTRGSMNIWSSVPGSKVLCTYIVGEEAMLELPDDVIIQNAMINLQKAFGNNCPRAPISAHITRWHDDELAFGSGAFMSLRTETTSFDDVMEPLKTSDGMSRVYFAGEHTCSSYTSTIQGAWMSGARAAADISNDHIGIGFVDISGTRGQRGDEEEELLIEVDIDGKIPEKDENEAVADIPNAPNAPNAQKPEEIPKIAEEIELVAEAEKAEKAEVQLEPLVPTVE", "soluble on expression in E. coli": "not soluble"},
      {"sequence": "MTPGGQAQIGNVDLVKQLNSAAVYRLIDQYGPISRIQIAEQSQLAPASVTKITRQLIERGLIKEVDQQASTGGRRAISIVTETRNFHAIGVRLGRHDATITLFDLSSKVLAEEHYPLPERTQQTLEHALLNAIAQFIDSYQRKLRELIAISVILPGLVDPDSGKIHYMPHIQVENWGLVEALEERFKVTCFVGHDIRSLALAEHYFGASQDCEDSILVRVHRGTGAGIISNGRIFIGRNGNVGEIGHIQVEPLGERCHCGNFGCLETIAANAAIEQRVLNLLKQGYQSRVPLDDCTIKTICKAANKGDSLASEVIEYVGRHLGKTIAIAINLFNPQKIVIAGEITEADKVLLPAIESCINTQALKAFRTNLPVVRSELDHRSAIGAFALVKRAMLNGILLQHLLEN", "soluble on expression in E. coli": "soluble"},
      {"sequence": "KDCASDGTLSAVGSLETPEKKQSESSRGRKRKAENQNESSQGKSIGGRGHKISDYFEYQGGNGSSPVRGIPPAIRSPQNSHSHSTPSSSVRPNSPSPTALAFGDHPIVQPKQLSFKIIQTDLTMLKLAALESNKIQDLEKKEGRIDDLLRANCDLRRQIDEQQKLLEKYKERLNKCISMSKKLLIEKSTQEKLSSREKSMQDRLRLGHFTTVRHGASFTEQWTDGFAFQNLVKQQEWVNQQREDIERQRKLLAKRKPPTANNSQAPSTNSEPKQRKNKAVNGAENDPFVRPNLPQLLTLAEYHEQEEIFKLRLGHLKKEEAEIQAELERLERVRNLHIRELKRINNEDNSQFKDHPTLNERYLLLHLLGRGGFSEVYKAFDLYEQRYAAVKIHQLNKSWRDEKKENYHKHACREYRIHKELDHPRIVKLYDYFSLDTDTFCTVLEYCEGNDLDFYLKQHKLMSEKEARSIVMQIVNALRYLNEIKPPIIHYDLKPGNILLVDGTACGEIKITDFGLSKIMDDDSYGVDGMDLTSQGAGTYWYLPPECFVVGKEPPKISNKVDVWSVGVIFFQCLYGRKPFGHNQSQQDILQENTILKATEVQFPVKPVVSSEAKAFIRRCLAYRKEDRFDVHQLANDPYLLPHMRRSNSSGNLHMAGLTASPTPPSSSIITY", "soluble on expression in E. coli": "soluble"},
      {"sequence": "MRSMWALLSVADKRGIVDFARGLAELGFRLLATGGTYRALREAGLPVTYISDFTGFPEILEGRVKTLHPKVHAALLARPDQEEELKALGLERIGVLAVNLYPFRETVARGASFAEALEQIDIGGPAMLRAAAKNHQAVLPVCDPEDYPRVLEALKAGPSPDFRQKLARKAFAHTALYDAAIAEWLSGEKFPEEKLLALRREASLRYGENPHQEAALYRVVGERGPLLEAQVLQGKAMSFNNYLDAEAAWNLVSEFAEPACVAVKHQNPCGVALGETPLEAYRKAYEADPVSIFGGIVAFNRPLDGPTAEALAEVFLEVVLAPSFSPEARAVLARKKNLRLLQVPFPAQGPYLDLRRLRGGVLLQDADTEDPAEPKVVTERAPTPEEWPDLRFAWKVVKHVRSNAIVVAKGGMTLGIGVGQTNRLAAARHALEAAGERAKGAVLASDAFFPFDDVVRLAASYGIAAIIQPGGSVRDQDSIRAAEEAGIAMVFTGVRHFRH", "soluble on expression in E. coli": "soluble"},
      {"sequence": "MGSDKIHHHHHHMSQLDMKMKLKQYEQTVIEYLGAQGGHFIVASDDQTFVGILRTTLLKQLAISGDPLTSVTDPDYILKVIRDTSLRRKHLVVFIERMMQGKDTSMLVRQMKNTFANVKIIILTGETERQRLVLLHEIGADNFISKPISINTLIEKIAFTIKPQGKLGQLIDAAKALVAQGNFETALKAARKILEVKPNSAAGYLVMGDAWQGLGKLDKARESFEQASEHANLYMEPLKKLAELHKLTGDMNERLRYLERLDQLSPLNVERKVDMGEIHVELGNEERAEELFETAVQQATKDALNYIGEISEKIAAVYSSRDPHKAEKYYRQALDAKGSHLDHTDIATFNRLGIALRRQGKWQQAIEEYEKALHITPDDPNLMYNMSMAYAEGRQFDKACSIVMRIRQITPSFGSMDKTLSYNMGIIFSRGRQPADARVLFENALRLDPSFEKAQKALENLES", "soluble on expression in E. coli": "not soluble"},
      {"sequence": "MKIKACIFDMDGTLVNSIMDIAFSMNSALSNLGYSKIELSKFNALVGRGFNKFVIDTLKLLSLEHDNPNLQEKLYKEFVKEYNKNLSFQTKPYENIKPLLETMNKLNIPIGILSNKNHEELINLVKNIFGNILFFEIRGYSKNFPPKPDPENALDMILELNAQKEEIAYIGDSDVDMLTALNAGFMPIGVSWGFRSVQELKESGAKHIIHNPLELLDLIK", "soluble on expression in E. coli": "not soluble"},
      {"sequence": "MIISDKFSLEAMCATTITDVKAGDEIILYGQKLTDENSCVTIKTDRVDIISSGNFIKYPNSTDIYDFDNKIDEWSFIIVEGVVNGNTIELNDKSTF", "soluble on expression in E. coli": "not soluble"},
      {"sequence": "MGSDKIHHHHHHMSENEQLSATYELLHADAASPVMISLPHSGTWIPADMRKHLLPTAVLANTDWFLPALYDFLPQTGFTTLINRVNRYVADPNRAVTLDLDHDYRSATIYQRNTFNHPLYARPLPPETLQSRLRTYYWPYRHALTMILKQKQAKFGHAYLIDLHSFAQYPHYPGIKPKTIVLGNDHDRTTSKIFRQTLSAAFVAHDFTVENNFPFRGGDITRYYGHQPNITAIQIELRYDQYIDQRSFREEVLTRHQTDLFCKAQDRLRFLRDFLKQLR", "soluble on expression in E. coli": "not soluble"},
      {"sequence": "ENYLNVKKIENEKNLQISEMSLQYDYYMKQSNDMENIRKISHDIKNHLEALRGNVDYQQKQEYIDGIESKLDIYQSYYKTGNAFLNNLLHAKRLEALEKKIEFKVFADFTPFKRVKNEDLCVIVSNTIDNALRECQLMKADNPKIECLVQLKARKIKGFLSIICENSLRESQAEALRGNLVMETSKEDKKNHGFGVKNIKRVVREYGGEVSFNVVDDMFSVSILIPIEV", "soluble on expression in E. coli": "not soluble"},
      {"sequence": "GMKLYKLLILDIDGTLRDEVYGIPESAKHAIRLCQKNHCSVVICTGRSMGTIQDDVLSLGVDGYIAGGGNYIQYHGELLYNQSFNQRLIKEVVCLLKKREVAFSIESQEKVFMNQKAKEIFETMNQLKGTNSCINKQHIQEKITYENNIEEYKSQDIHKICLWSNEKVFDEVKDILQDKMELAQRDISSQYYEIIQKDFHKGKAIKRLQERLGVTQKETICFGDGQNDIVMFQASDVTIAMKNSHQQLKDIATSICEDIFDNGIYKELKRRNII", "soluble on expression in E. coli": "soluble"},
      {"sequence": "LRGFIIGRFQPFHKGHLEVIKKIAEEVDEIIIGIGSAQKSHTLENPFTAGERILMITQSLKDYDLTYYPIPIKDIEFNSIWVSYVESLTPPFDIVYSGNPLVRVLFEERGYEVKRPEMFNRKEYSGTEIRRRMLNGEKWEHLVPKAVVDVIKEIKGVERLRKLAQTDK", "soluble on expression in E. coli": "soluble"},
      {"sequence": "KKDFTWKTNLTFSLNRNKIVDLYGDKKDDLANRWFIGQPMKVIYDLEKVGIWQTEDKELAAKYGQVPGHIRVADLDENYVIDERDYKVLGSPSPDWTAGMTNTFTYKNWDLSFYMYARIGGTYNDDFTYMFTAWDNEHWNKLNVKYWTPENHSNEYQQIGAQSYHTQVLGKISGSFLKIQNITLGYTLPENWMKKMKMKNARAYINVQNPFTFTDYLGPDPETIGEDVYKSLSLYPMTFTFGVNLTF", "soluble on expression in E. coli": "not soluble"},
      {"sequence": "MTSVLDPDRALEDEAKDKFGFVGIAKQLAPPIIEAAKGEGMVIGLEGRWGSGKTSLLNFLRAELQASKKSGIHTITIAPWLNGDTSSLVLSLLEPMAAVLKQKEDELAESYGEGQSATKERVAEVGRLLRAYGPKTARRIASLANVAGYVLPGAQAIGGALAASASAADEIFDVGPTPSELKQELAVKIQELNVGFIVILDDLDRLEPEQAVEVVRLVRSVADFPKVVYLMCYDREVLSEALKTGLKVSDGDLFLQKIVQLTFNIPLPEPFDLRTQFRNEAKAIYFEATGVDLDGAILHDLTYAVDREGMGLSTPREVKLALNSIRFVFSQVKDDVYFPDLCRLHLIKTTNYKLYKWLEIYLSVRSVLVTGDATVSEDEKTKMGEELKMLLPASGPGSVHSIWSLARFIPGVVDTEKVSERVFNAINSSAISEAVRLKRLGSPLHYRFYFALTGPKTVMPDEDFNAILELARNDIDQLESRLAAETMKRRDSGRTWFEHVLDRLDDDCISSLDESQLSGILHALSGMMDIAMKEDGEVRSFALSLDGIANIVAKRCLVRLRELNPEKQANTVRSMAQDGKAINWLVGKFFRSQLFNHGKVGERAERPEQWEISEDLLDDIIEILRKRLSEQDIKNLIPNLPNVSAYLYGWMNLTDDDQAKNWVQEYSESDEGFLDILNHLRGWAMSDKVYYPLSEKTVSSFLDWNEVKTRLDGMQLEHHHHHH", "soluble on expression in E. coli": "not soluble"},
      {"sequence": "MGSDKIHHHHHHCLDVDIVDRVEKEDGFFKTEDHALAAINGVYSTLYAFAYHKTNWAIILPTYEDAMFSTGNAVPATVSNNTHSAGSAPVVNFWGELYNGIKNANEVIARVPSISFKSENDKNRIIAEAYFLRALYHYDLMRLYGGVNGIPIVIEPVTGIENAYVPQSPASKVYEQIISDFEYAAGLNDDDTPRLPKRLDPAYTSGRVTNGAAHAFLAEVYLTLGRWEDAAREAQEVISSEQYTFVNDYQNLWDIEQESLAQTEHIFSVPFFRDKDALADQSLGSNIAHLFNPAGVQVGGKLVSGNPYGKGAGAHRVQKWFIKYFQDDQGNLGYSDPSVDASIDESKLISKDYRIEVTFWRRFQQKNNNTGVLGNIVTVYPAAGGNSQENWGYIRKFIDPQGINNRTNENDMPRLRLSDMYLIRAEALNELGKYTEACQAIDMVRERARKANGTERAYPKYIGSDRPDNIGRTLTKQEFRWLVFMERGLEFAGEQKRWFDLIRMKYDENTQMYDYIKDTFIPSRPAADVQKQGVMAARKKYFPIPFAEVSRNDGVQQNPGY", "soluble on expression in E. coli": "not soluble"},
      {"sequence": "LTLRAGREQNIPMNLSDSWAARRPVTARVSAAEAVLADLRDAITSGELSVGERLPSEASLAARHGVSRSVIREALRSCHALGLTETKSGLGTFVVSDSIARDLDFGNYAANELVEARPHVEIPAAGWAAQRHTAEDLAALRGLVDQMRDEDDPLVWVSLDAQFHAFIARTSRNRVFESVIVDIREALTRQSETLNLVAGRQQKSNDEHDRIVEGIASGSYDKAARAMAEHLDAVRVALESVVGEAGPDRRQ", "soluble on expression in E. coli": "not soluble"},
      {"sequence": "MLQSLKDVAKQAPVHRKLDIQEWKTAEGAKVLFVEAHELPMFDLRLTFAAGSSQDAGTPGLSMLTNAMLNEGVPGKDTTAIAAGFEDLGASFSNGSYRDMAVAGLRSLSEADKRTQALKLFEQVIGQPTFPEDALARIKNQVLAGFEYQKQNPGKLAGLELFKRLYGEHPYAHSSDGDEKSVPTISREQLQAFHKKAYAAGNVVIALVGDLSRQEAEAIAAEVSKALPQGPALAKTLEHHHHHH", "soluble on expression in E. coli": "soluble"},
      {"sequence": "MNNSSFFGNRLKEERKKLKMTQAEIAEKCGVSGRMWGDYERGISQPKAELFFQFEKVGIDVQYVMHGRRGETAVMPSETLNAEEQELLVLFREAAAADREMILMVARRAEKKAQTALGKVSNG", "soluble on expression in E. coli": "not soluble"}
    ]}
  ]
}
